# B1: F1*; the commonest letter at each place (parent)
# chain: GAGACCGCAACTGAAAAGTTGTTATCACTTGTCGTAAGACACTTTGGATGGGTTGAAGTTCTGCACGTAGAAGCAAAAGGC
# Variants of: B1
# Assay: fraction ligated after 30 min (ligated reads / total reads); higher = more ligase activity
# Conditions: with F1*sub RNA substrate (template-directed ligation), 42 °C
# In short: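 Ribozyme variants were transcribed with T7 from PCR-amplified oligo-pool templates and gel-purified. Ligated and unligated bands, separated on gel, were reverse transcribed with barcoded primers and sequenced on a MiSeq, with core bases filtered at quality ≥20. Fraction ligated per variant was computed as ligated reads divided by total reads.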
row,Variant,fraction ligated
1,GAGACCGCAACTGAAAAGTTGTTATCACTTGTAGTAAGACACATTGGATGGGTTGAAGTTCTGCACGTAGAAGCAAAAGGC [C33A T43A],0.83
2,GAGACCGCAACTGAAAAGTTGTTATCACTTGTCGTTAGACAATTTGGATGGGTTGAAGTTCTGCACGTAGAAGCAAAAGGC [A36T C42A],0.834
3,GAGACCGCAACTGAAAAGTTGTTATCACTTGTTGGAAGACACTTTGGATGGGTTGAAGTTCTGCACGTAGAAGCAAAAGGC [C33T T35G],0.854
4,GAGACCGCAACTGAAAAGTTGTTATCACTGGTCGTAAGACACTTTGCATGGGTTGAAGTTCTGCACGTAGAAGCAAAAGGC [T30G G47C],0.0588
5,GAGACCGCAACTGAAAAGTTGTTATCCCTTGTCGTAAGACACGTTGGATGGGTTGAAGTTCTGCACGTAGAAGCAAAAGGC [A27C T43G],0.765
6,GAGACCGCAACTGAAAAGTTGTTATCACTTGTCGTAAGTCACTTTTGATGGGTTGAAGTTCTGCACGTAGAAGCAAAAGGC [A39T G46T],0.771
7,GAGACCGCAACTGAAAAGTTGTTATCACTTATCGTAAGACAGTTTGGATGGGTTGAAGTTCTGCACGTAGAAGCAAAAGGC [G31A C42G],0.818
8,GAGACCGCAACTGAAAAGTTGTTATCACTTGTCGCAAGACACTTTGGATGGGTTGAGGTTCTGCACGTAGAAGCAAAAGGC [T35C A57G],0.822
9,GAGACCGCAACTGAAAAGTTGTTATCACTTGTCGTAAGACACTTTGGTAGGGTTGAAGTTCTGCACGTAGAAGCAAAAGGC [A48T T49A],0.565
10,GAGACCGCAACTGAAAAGTTGTTATCACTTGTCGTAAGACACATAGGATGGGTTGAAGTTCTGCACGTAGAAGCAAAAGGC [T43A T45A],0.725
11,GAGACCGCAACTGAAAAGTTGTTATCACGTGTCGTAAGACACTTTGGATGGGTTGCAGTTCTGCACGTAGAAGCAAAAGGC [T29G A56C],0.787
12,GAGACCGCAACTGAAAAGTTGTTATCACTCGGCGTAAGCCGCTTTGGATGGGTTGAAGTTCTGCACGTAGAAGCAAAAGGC [T30C T32G A39C A41G],0.852
13,GAGACCGCAACTGAAAAGTTGTTATCACTTGGCGTAAGACACTTTGGATGGGTTGAAGTTCTGCACGTAGAAGCAAAAGGC [T32G],0.828
14,GAGACCGCAACTGAAAAGTTGTTATCACTTGTCGTAAGATACTTGGGATGGGTTGAAGTTCTGCACGTAGAAGCAAAAGGC [C40T T45G],0.195
15,GAGACCGCAACTGAAAAGTTGTTATCACTTGTGGTAAGACGCTTTGGATGGGTTGAAGTTCTGCACGTAGAAGCAAAAGGC [C33G A41G],0.791
16,GAGACCGCAACTGAAAAGTTGTTATCACTTGTCGTAAGACACTCTTGATGGGTTGAAGTTCTGCACGTAGAAGCAAAAGGC [T44C G46T],0.787
17,GAGACCGCAACTGAAAAGTTGTTATCACTTGTGGTAAGACACGTTGGATGGGTTGAAGTTCTGCACGTAGAAGCAAAAGGC [C33G T43G],0.807

row,Variant,fraction ligated
1,GAGACCGCAACTGAAAAGTTGTTATCACTTGTCGTAAGACCCTTTAGATGGGTTGAAGTTCTGCACGTAGAAGCAAAAGGC [A41C G46A],0.764
2,GAGACCGCAACTGAAAAGTTGTTATCACTTGTCATAAGACACTTTGGATTGGTTGAAGTTCTGCACGTAGAAGCAAAAGGC [G34A G50T],0.778
3,GAGACCGCAACTGAAAAGTTGTTAACACTTGTCGTAAGACACTTTGGACGGGTTGAAGTTCTGCACGTAGAAGCAAAAGGC [T25A T49C],0.612
4,GAGACCGCAACTGAAAAGTTGTTATCACTTGTCGTAAGACGCCTTGGATGGGTTGAAGTTCTGCACGTAGAAGCAAAAGGC [A41G T43C],0.744
5,GAGACCGCAACTGAAAAGTTGTTATCACGTGTCGTAAGACACTTTGGATGGGTTTAAGTTCTGCACGTAGAAGCAAAAGGC [T29G G55T],0.792
6,GAGACCGCAACTGAAAAGTTGTTATCACATGTCGTAAGACATTTTGGATGGGTTGAAGTTCTGCACGTAGAAGCAAAAGGC [T29A C42T],0.826
7,GAGACCGCAACTGAAAAGTTGTTATCACTTGTCGTAATACACTTTGAATGGGTTGAAGTTCTGCACGTAGAAGCAAAAGGC [G38T G47A],0.762
8,GAGACCGCAACTGAAAAGTTGTTATTACTTGTCGTAAGACACTTTGCATGGGTTGAAGTTCTGCACGTAGAAGCAAAAGGC [C26T G47C],0.0296
9,GAGACCGCAACTGAAAAGTTGTTATCACATGTCGTAATACACTTTGGATGGGTTGAAGTTCTGCACGTAGAAGCAAAAGGC [T29A G38T],0.87
10,GAGACCGCAACTGAAAAGTTGTTATCACCTGTCGTAAGACACTTTTGATGGGTTGAAGTTCTGCACGTAGAAGCAAAAGGC [T29C G46T],0.779
11,GAGACCGCAACTGAAAAGTTGTTATCACTTGTCGTAAGACGCTTTGTATGGGTTGAAGTTCTGCACGTAGAAGCAAAAGGC [A41G G47T],0.354
12,GAGACCGCAACTGAAAAGTTGTTATCACTTGTCGTAAGACGCTTTGCATGGGTTGAAGTTCTGCACGTAGAAGCAAAAGGC [A41G G47C],0.178
13,GAGACCGCAACTGAAAAGTTGTTATCACTTGTCGTAAGTCACTTTGGATGGGTTAAAGTTCTGCACGTAGAAGCAAAAGGC [A39T G55A],0.786
14,GAGACCGCAACTGAAAAGTTGTTATCACTTGTCGTAAGAAACTTTGTATGGGTTGAAGTTCTGCACGTAGAAGCAAAAGGC [C40A G47T],0.341
15,GAGACCGCAACTGAAAAGTTGTTAACACTTGTCGTAAGACAATTTGGATGGGTTGAAGTTCTGCACGTAGAAGCAAAAGGC [T25A C42A],0.653
16,GAGACCGCAACTGAAAAGTTGTTATCAATTGTCGTAAGACACTTTGGATGGGTTGGAGTTCTGCACGTAGAAGCAAAAGGC [C28A A56G],0.681
17,GAGACCGCAACTGAAAAGTTGTTACCACTTGTCGTAAGTCACTTTGGATGGGTTGAAGTTCTGCACGTAGAAGCAAAAGGC [T25C A39T],0.766

# From the supplement of paper PMC6755084
